Assay: soluble on expression in E. coli; label from the status in PepcDB or PDB records

| Sequence | soluble on expression in E. coli |
| --- | --- |
| MWSEYSLEVVDAVARNGSFSAAAQELHRVPSAVSYTVRQLEEWLAVPLFERRHRDVELTAAGAWFLKEGRSVVKKMQITRQQCQQIANGWRGQLAIAVDNIVRPERTRQMIVDFYRHFDDVELLVFQEVFNGVWDALSDGRVELAIGATRAIPVGGRYTFRDMGMLSWSCVVASHHPLALMDGPFSDDTLRNWPSLVREDTSRTLPKRITWLLDNQKRLVVPDWESSATCISAGLCIGMVPTHFAKPWLNEGKWVALELENPFPDSACCLTWQQNDMSPALTWLLEYLGDSETLNKEWLREPEETPATGD | not soluble |
| MWTGKTGNMLGALALTLTDRIRAEVNVSLDAGGETAAALVLLGANPALTVAEIAEALGLTHSGAVRLVDRLCVSGLAERQSGPDARAVHVRLTSAGARQRRRALLRRQAVLDHALQALSPSEEAAFAQMLDKLLRRMLDFPDQGHRFCRLCDEDLCVPHGCPVEERLVELLERQARETGL | not soluble |
| MYEVTKFGGEGKRLEDYREIIGDEALEAIKAKAENLKDKSFVHVNSTSFGGGVAEILHNLVPLMRDVGIDARWFVIEGTNEFFNVTKSFHNALQGNKELRLTEEMKKLYLEINKKNAEDIDLTQFDYVLIHDPQPAPLIEFYEKRQPWIWRCHIDLSDPNLEFWKFLRQFVEKYDRYIFHMEEYVQEDLNQEKVVIMPPSIDPLSEKNMELEHHHHHH | not soluble |
| MYFPIVALIGRYQDTGLDAPLTALAQMLTQAGRRVLVEAETARNAGVSGYPVADWDEIGRTATLAVVMGGDGTVLGAARHLAPYGVPLIGINHGRLGFITDIPLQDAHDALGRVLEGNYQAEDRMLLQGGVWRGEQQMYSASAVNDVVLNRAGRGGMIEVRVELDGAFMYTQRADGLIIATPTGSTAYSLSANGPILHPGMNAMVLVPVAPQTLSNRPIVIPDSGVLNMTLTAMGRVEIGASVHFDMQTWSDLQPGDRITVQRAPHTIRFVHPEGYSFFSTLRRKLHWNLMPQATDNLELEHHHHHH | soluble |
| MYGVLVWPPEDLRRFMEELQAARGVRGFGPPHLNLRQPFDWPYEEEALRIALAGILRGHPPFRVRLGDWRFFPQGVVYLRAYGGGAFRRLYHALEPLAPPLKEIEGPSYIPHLTLALGLSPEEAKALAQSLPPPPRRSFLVREAALVRDEGEGLVEVARFPLGPSPER | soluble |
| MYHVPLIPRDAGREETIFRINQSLQKLLRVSDEIFDRVEHRITRIHGKAEAIDRRTEVLEKKLESLQESDKVITFTLPRQLPKLPEEPPTSTSLFRINIDTEHFPGSEELPAFRRADDHVLRPCEPIDFTYELNKPDKFFLTSQVLKEYEQKGWERYKKRLLGGLRELSRSPEHIAELFYAGTSIPAFEGVSGDFSKKALDADDDGGTSRSGRTTDELAQLRLHEQLLEDTALSSTLMQEDSLDDNHPLAFRINFNEKKKKTAKMVEMPDSLPNLKGHAHDFTLRDPEIDEDRLLDILPADDQIPEASEPTEAEADAPTTFILPPPPPPMKLDPSPQPAATPVEITEIPPIISPPAPPPPPPPPPPPPPPQTPSASSSVTFSPTKSVDGGRSDLMAAIRAAGGAGNAKLSRIAEKPKRKGKFDGILESSALLGASETPRNSAPAPDGGGGGGDLMSALSKALDARRKAINGKVEAQPPAKVSSTIPAPPNFDDEEWD | not soluble |
| MYILLCCAAGMSTSMVVRKMQEEAKKQGKDYKIKAVDSELVKLEIKNADVVLIGPQVKYLFPAVQFLAKSYDIPVAIIEQRDYGMCDGLKVLKQAEQLVLA | not soluble |
| MYKDFANFIRTNKADLLNNWMNEMEKQSDQLINDIAKEAMYEETSKEFVDLIVSNVTENGSKFNEKLDDFAEKVVHLGWPIHFVTTGLRVFGLLVYTAMRDEDLFLKREEKPEDDAYYRFETWLSSMYNKVVTAYADTWEKTVSIQKSALQELSAPLLPIFEKISVMPLIGTIDTERAKLIIENLLIGVVKNRSEVVLIDITGVPVVDTMVAHHIIQASEAVRLVGCQAMLVGIRPEIAQTIVNLGIELDQIITTNTMKKGMERALALTNREIVEKEG | not soluble |
| MYKIMPLKVAEISVPLGVTIMMGDMRVMATGPVYVWVIDGGDEKIVVDSGVEEAKNGMFHGFPGKGGGEKGLREAMEKVNLKPEDVDKLIITHLHFDHAANAKLFTNARIYVQKREWESALNPPLHYRQTYDSSMLYPLEEMDLCLIDGDVEIAEGVKAVLLPGHTKGLQGVAVETEKGTYLLAADHFYTYFNFFPPKQPIQMTDTAGNTVEIPTSPLPFLPPGLHVDLSEWYESCFKALSVAKKANILPGHDPSLEGRVFPLEHHHHHH | not soluble |
| MYKLNLDIQAFLANDWQQAPKVFKGAFPDFEDPIAADELAGLACEEEVSSRVVVTKGNDWEVISGPFEDYDRFGETHWQLLVQAVNHWYPESQPLVEAFRFLPDWRFDDLMVSFATPQGGVGPHIDNYDVFIIQGEGQRRWTVGPKGNYQRRGGVTTSPLIEDFEPIIDVVLEKGDVLYIPPGFPHQGETLTLALSYSMGYRAPSQQELAGQIADQLMDEDKGHKRFIAVDGAASHGTVSLAEQQGIMQLIRDLCNDTDNVVKVLGKLLSQNRFDLDIQEDESIDADALVEALNEGAVLMRIGGLKVLKMEGDSQARLFVAGESVIIEGASEEELIEVSNSVNVNAELAQLPHWQGFFVQMLQKGYFYLGED | soluble |
| MYKYFDAHCHYSYLKKKYEGYLIAAVSMDYQSAMDTFSLKSDNVLVGVGIHPWRVHEEDLTRILSLIIKADFVGEVGLDYRFAKAPKELQIKYFEEQIKAGEGKLINVHALDAWKDAFNILVKNDVKSAIFHWYTGPINLLKDIESAGYFISINPSVSFQKKHQEVLKNVDLKNVLTESDGGYEYRGKLLEPSDIPNAISFMSNFLGIEEYKLVRIISNNFFKAYGVNPVNN | not soluble |
| MYNNSELRKIQQKKLEILIDIAKFCNENKIRYWLDSGTLLGAVRHGGFIPWDDDIDIIIMQEDAKFLKENYKSENFEIVNTDEEGINFYKVISKKEQVQVGDSIAELDIDIFLVTYYPDSLALKFWNSFFHLKKNRIDRFSFSLFFTNILINLKRKLEKTKLFNYKNIEKKISYILDEAKKKNKAMPNIAYTPDCGFYLIIWREEEIFPLKKMKFEGIEFSIPNNYDTYLKKMYYSYMDLPPKEKRVPEHYQDKELKLIIKLEHHHHHH | not soluble |
| MYQKKDRACRIRRKQCKLFGDWQKSVITQLKTIQDKNISIHKAFGCMIRLAANLFYAHSKIIHFMSEEAGEDAQRKAAEREAKKAEVRKRLEEAGNKKKAKKGFLTPERKKKLRKLLMVKAAEDLKRQQLLKEQERQKALADRTISLPNVDSIDDKGQLEKIYNDLWARLTQLEEEKYDINYVVSQTEAEINSLTIEVNDLRGKFVKPSLKKVSKYDNKFKKSGESKAGTKEDFRANLKIVKKDVMEAIVNVKKKDDKPDWSKKNKDAKAEDSAPAAVAPEAEPVAEEAEAEPEAEEEEGEEEEEE | not soluble |
| MYQLEKEPIVGAETFYVDGAANRETKLGKAGYVTNRGRQKVVTLTDTTNQKTELQAIYLALQDSGLEVNIVTDSQYALGIITQWIHNWKKRGWKTADKKPVKNVDLVNQIIEQLIKKEKVYLAWVPAHKGIGGNEQVDKLVSAGIRKVLF | soluble |
| MYQQSSFKENLIHWFDENQREMPWRQTTNPYYIWLSEVMLQQTQVKTVIDYYHRFVERFPTVEVLSQASEDEVLKYWEGLGYYSRARNFHTAIKEVHDKYEGLVPKDPDQFKALKGVGPYTQAAVMSIAYNVPLATVDGNVFRVWSRLNDDYRDIKLQSTRKSYEQELLPYVTTEAGTFNQAMMELGALICTPKNPLCLFCPVQENCEAFDKGTFEKLPVKSKNVSKKVIEQSVFLIRNNQGQYLLQKRSEKLLHGMWQFPMFESEHARRKMTEKIGHDIQPVETPIFELKHQFTHLTWKIKVYAVSGAINIETLPDDMIWFDLSDRDQYTFPVPMSKIYQFING | not soluble |
| MYQVIRMYGAMEPWWFLDDWKEDITKVLEFDNYHEALQCYQKEWAKLRRRYSDFNSHGDIMTAFWNKQDQHWCEECGDYVQRYHSLALLTDWQETPSSWFRPTFTKQNDTPFRSKCFIKQKNEQGQNLEHHHHHH | not soluble |
| MYRAWDPSLTTIDSFLVNELLLHAHPTKTPPEVTEGQTPSSSSSSSTDSGRETMLEEEEAACCDLDSELARIGDENTAEIRELCLPLEIDSRCNLCAIVSICLRRDPQQKWLLDYCFLCHKCAAAPRTAMATLIVATEFLHLMKLHFRDIAFDNIFKERIVTIFDFHAHFFINRCYTQRDEHPVMVENITLAHMAVTRALLTDDDAVPYTKRRKIQYKLPKKPAPAEPEELRLLDKYRRATEGSFARVLFYIWSGTNVMFNTTLTDLAIKKSKALKALKTRQSEIEPSVGPVFLSPIPTFRLRNATTTVCLLCELMACSYRDNVFLQQLRERITNYSRNNLKIIDRTQLTMAEILSHGRNSEFPQQLKNKDVSIYVTSSPETLAAASRPGTEEPFELSALTYLVLRQVGVIGVYKHLFADPLCAANMRSTDPNILFFDVPNEYLNEAKLAICSTNAYPSRVERDFWLYAHMFKAFQIIKRNFKTKTQLSDFLRDFSQVLESHDFSLVDPSFTVEKYV | not soluble |
| MYSFPNSFRFGWSQAGFQSEMGTPGSEDPNTDWYKWVHDPENMAAGLVSGDLPENGPGYWGNYKTFHDNAQKMGLKIARLNVEWSRIFPNPLPRPQNFDESKQDVTEVEINENELKRLDEYANKDALNHYREIFKDLKSRGLYFILNMYHWPLPLWLHDPIRVRRGDFTGPSGWLSTRTVYEFARFSAYIAWKFDDLVDEYSTMNEPNVVGGLGYVGVKSGFPPGYLSFELSRRAMYNIIQAHARAYDGIKSVSKKPVGIIYANSSFQPLTDKDMEAVEMAENDNRWWFFDAIIRGEITRGNEKIVRDDLKGRLDWIGVNYYTRTVVKRTEKGYVSLGGYGHGCERNSVSLAGLPTSDFGWEFFPEGLYDVLTKYWNRYHLYMYVTENGIADDADYQRPYYLVSHVYQVHRAINSGADVRGYLHWSLADNYEWASGFSMRFGLLKVDYNTKRLYWRPSALVYREIATNGAITDEIEHLNSVPPVKPLRH | soluble |
| MYSGARQGVISGKVTHHNEVFYEFFDKDYKYLFGKVKDIFTDVGAWVEYNVEKVQSHPKNCLHFAQNVNTEVKRTNAPTCDVFSSNRFQFDVREFNKVDFFQFDNADRQLSFKGTIRFNSNKNQFYHEYYGDVLVGEAEKLIRFGINEIDVMMNLYRSDEYTRGPHWYVKHYINKGKSYNINGYLSINGFVLRGPGGVVRNKNQVNIPPDALRPNNPVPNLSNGTSSQELAAAPNRNNFPTYATQRPRRNSDWDDEEPQTTAAPAGTSNSTAAASRPQVGDGKTGFRAFGGDAAPQSRGFDDGAIQRRAFGGLTTAPAAAPNRNNFPTYATQRPRRNSDWDDEDPQTTAAPAGTFNSAAASFRPQVGNGKAGSRAFGGDTAPQRSGLDDGATQRRAFEGLTIAPAAASNRNSFPTFATQRPRRNSDWGDEEPETTVAPAGKSNSTAAASRPQVGNGKTGSRPFGGDTAPQRRGLDDGAIQRRAFGGLTTAPAAAPNQNNFPTFATQRPRRNSDWDDEEPQATDAPAGTFNSAAASFRPQVGNGKAGSRAFGGDTAPQTSGLDDGAIERRAFGALATAPREVVLGGERAAGQLRPRGPESTIQPRRVPQSRQFGGVSATSNDPTTPEPRRINETPRVLLPPQSKGRRVDS | not soluble |
| MYSKIEGSIITARFDKETDFFTDLVDLCNKYEVKSGTVLWAIGMLKEFQIGYWNGNDYEKETFRERLELVSLHGSIAENDPRFHIHAAGARGNHGIVGGHLFSAKVDPLVEIQIMKITGFSMSRELDNSDGLYKLVIKLEHHHHHH | not soluble |
| MYTIQANPSGTRSIEVSSENLKTIEKYALFRHLIDSTGIVDEPVLDKLKLNIRSLIASQEEDSKELLDLCIDVIYHNNMKAFGLQQLIKLYLTWLSTQDAEEEEE | soluble |

— the DeepSol protein solubility set
